Data reported in the supplement of paper PMC7125110.
± gives the standard error. For some assays here: Variants at the floor of the assay were thinned out.

B1: glmS ribozyme (parent)
chain: AUAAAAGCGCCAGAACUACAGAAAUGUAGUUGACGAGGAGGAGGUUUAUCGAAUUUUCGGCGGAUGCCUCCAAA

How the values were obtained:
Details in all cases: with glucosamine-6-phosphate
glucosamine-6-phosphate [1] = variants of: B1; assay: kcat; higher = faster cleavage; RNA array
How it was run: (§1)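 Ribozyme variants carrying barcodes were transcribed in situ on sequenced MiSeq chips by E. coli RNA polymerase and tracked at 37 °C with a hybridised Cy3 probe. They were exposed to 40 μM to 10 mM glucosamine-6-phosphate in HEPES/KCl/Mg(OAc)2 buffer. kobs came from exponential decay fits of normalised per-tile medians, and kcat and KM from weighted Michaelis–Menten fits.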

glucosamine-6-phosphate [2] = variants of: B1; assay: KM; higher = weaker cofactor use; RNA array
How it was run: as §1

glucosamine-6-phosphate [3] = variants of: B1; assay: self-cleavage kobs at 160 uM GlcN6P; higher = faster cleavage; RNA array
How it was run: as §1

glucosamine-6-phosphate [4] = variants of: B1; assay: self-cleavage kobs at 40 uM GlcN6P; higher = faster cleavage; RNA array
How it was run: as §1

glucosamine-6-phosphate [5] = variants of: B1; assay: self-cleavage kobs at 640 uM GlcN6P; higher = faster cleavage; RNA array
How it was run: as §1

glucosamine-6-phosphate [6] = variants of: B1; assay: self-cleavage kobs at 2500 uM GlcN6P; higher = faster cleavage; RNA array
How it was run: as §1

glucosamine-6-phosphate [7] = variants of: B1; assay: self-cleavage kobs at 10000 uM GlcN6P; higher = faster cleavage; RNA array
How it was run: as §1

| Variant | kcat (glucosamine-6-phosphate [1]) | KM (glucosamine-6-phosphate [2]) | self-cleavage kobs at 160 uM GlcN6P (glucosamine-6-phosphate [3]) | self-cleavage kobs at 40 uM GlcN6P (glucosamine-6-phosphate [4]) | self-cleavage kobs at 640 uM GlcN6P (glucosamine-6-phosphate [5]) | self-cleavage kobs at 2500 uM GlcN6P (glucosamine-6-phosphate [6]) | self-cleavage kobs at 10000 uM GlcN6P (glucosamine-6-phosphate [7]) |
| --- | --- | --- | --- | --- | --- | --- | --- |
| A6U U46C | 2.4e-05 ± 7.8e-07 s⁻¹ | 2710 ± 290 µM | < 1e-05 s⁻¹ |  |  |  |  |
| C8G G37U | < 1e-05 s⁻¹ |  | < 1e-05 s⁻¹ |  |  |  |  |
| C8G U57C | < 1e-05 s⁻¹ |  |  | < 1e-05 s⁻¹ | < 1e-05 s⁻¹ | < 1e-05 s⁻¹ | < 1e-05 s⁻¹ |
| A6C A53G | 0.000117 ± 1e-05 s⁻¹ | 3110 ± 770 µM |  |  | 3.04e-05 ± 1.3e-05 s⁻¹ | 4.95e-05 ± 7.6e-06 s⁻¹ | 8.97e-05 ± 7.3e-06 s⁻¹ |
| A6U C67A | 7.39e-05 ± 6.8e-06 s⁻¹ |  |  |  | 6.68e-05 ± 1.7e-05 s⁻¹ | 5.62e-05 ± 1.1e-05 s⁻¹ | 7.43e-05 ± 7.2e-06 s⁻¹ |
| A6C U55A | 9.15e-05 ± 2.5e-05 s⁻¹ |  |  |  |  | 7.01e-05 ± 1.6e-05 s⁻¹ | 7.27e-05 ± 1.2e-05 s⁻¹ |
| A6C C67A | 3.57e-05 ± 2.8e-07 s⁻¹ | 1260 ± 54 µM |  |  |  |  | 3.18e-05 ± 9.1e-06 s⁻¹ |
| A6C C67U | 2.53e-05 ± 7.4e-07 s⁻¹ | 660 ± 160 µM | < 1e-05 s⁻¹ | < 1e-05 s⁻¹ |  |  | 2.36e-05 ± 7.4e-06 s⁻¹ |
| A6U G13C C70G | 2.43e-05 ± 8.6e-06 s⁻¹ |  |  |  |  |  |  |
| A6C U54C | 0.000106 ± 1.8e-05 s⁻¹ | 2090 ± 1000 µM |  |  |  | 6.36e-05 ± 1e-05 s⁻¹ | 8.4e-05 ± 1.4e-05 s⁻¹ |
| A6U U56A | 0.000103 ± 7e-06 s⁻¹ | 1590 ± 350 µM |  |  | 3.39e-05 ± 1e-05 s⁻¹ | 5.83e-05 ± 9e-06 s⁻¹ | 9.06e-05 ± 9.5e-06 s⁻¹ |
| A6U U56G | 0.000121 ± 1.2e-05 s⁻¹ | 1090 ± 430 µM |  |  | 3.35e-05 ± 1.5e-05 s⁻¹ | 9.43e-05 ± 1.2e-05 s⁻¹ | 0.000104 ± 1.1e-05 s⁻¹ |
| G7U C71G | 1.1e-05 ± 2.1e-06 s⁻¹ |  | < 1e-05 s⁻¹ |  |  |  |  |
| A6U G40U | 2.6e-05 ± 7e-07 s⁻¹ | 4450 ± 330 µM |  |  |  |  | 1.8e-05 ± 7.6e-06 s⁻¹ |
| A6G A14C U54G | 3.49e-05 ± 4.1e-06 s⁻¹ |  |  |  |  | 3.32e-05 ± 1.2e-05 s⁻¹ | 3.47e-05 ± 1.5e-05 s⁻¹ |
| A6U G13U | < 1e-05 s⁻¹ |  |  | < 1e-05 s⁻¹ | < 1e-05 s⁻¹ |  |  |
| A6G U31C | 6.74e-05 ± 1.3e-05 s⁻¹ |  |  |  |  | 5.13e-05 ± 7.6e-06 s⁻¹ | 5.58e-05 ± 7.5e-06 s⁻¹ |
| A6U G32U C50G | 6.32e-05 ± 1.6e-05 s⁻¹ |  | 7.94e-05 ± 1.8e-05 s⁻¹ |  |  | 6.04e-05 ± 1.5e-05 s⁻¹ |  |
| A6C A12C | 4.52e-05 ± 3.2e-06 s⁻¹ | 1190 ± 370 µM |  |  |  | 2.86e-05 ± 7.1e-06 s⁻¹ | 4.11e-05 ± 6.6e-06 s⁻¹ |
| A6C U69A | 2.1e-05 ± 3.8e-06 s⁻¹ |  |  |  |  |  |  |
| A6C A15C | 3.27e-05 ± 1.8e-06 s⁻¹ |  |  |  |  |  |  |

| Variant | kcat (glucosamine-6-phosphate [1]) | KM (glucosamine-6-phosphate [2]) | self-cleavage kobs at 160 uM GlcN6P (glucosamine-6-phosphate [3]) | self-cleavage kobs at 40 uM GlcN6P (glucosamine-6-phosphate [4]) | self-cleavage kobs at 640 uM GlcN6P (glucosamine-6-phosphate [5]) | self-cleavage kobs at 2500 uM GlcN6P (glucosamine-6-phosphate [6]) | self-cleavage kobs at 10000 uM GlcN6P (glucosamine-6-phosphate [7]) |
| --- | --- | --- | --- | --- | --- | --- | --- |
| C8G C61A | < 1e-05 s⁻¹ |  | < 1e-05 s⁻¹ | < 1e-05 s⁻¹ |  | < 1e-05 s⁻¹ |  |
| G7U A52G C70G | 3.01e-05 ± 9.2e-06 s⁻¹ |  |  |  |  |  |  |
| A6G U54A | 0.000561 ± 5.2e-05 s⁻¹ | 1600 ± 440 µM |  |  | 0.000143 ± 5.7e-05 s⁻¹ | 0.000387 ± 0.00011 s⁻¹ | 0.000476 ± 7.7e-05 s⁻¹ |
| A1G G37U | 1.48e-05 ± 2.9e-06 s⁻¹ |  |  |  | < 1e-05 s⁻¹ |  |  |
| G7U C10U G37A C67A | 3.55e-05 ± 1.6e-05 s⁻¹ |  |  |  |  |  |  |
| A6U A36C G38A A52U | 1.37e-05 ± 2.9e-06 s⁻¹ |  |  |  | < 1e-05 s⁻¹ |  | < 1e-05 s⁻¹ |
| A6U U30C U31G | 9.88e-05 ± 6.8e-06 s⁻¹ | 7220 ± 1100 µM |  |  |  |  | 5.74e-05 ± 1.6e-05 s⁻¹ |
| A6C U65G | 2.87e-05 ± 1.5e-06 s⁻¹ | 342 ± 150 µM |  |  |  |  | 2.71e-05 ± 1.1e-05 s⁻¹ |
| A6U A15U | 3.81e-05 ± 2.5e-06 s⁻¹ | 1260 ± 360 µM |  |  |  | 2.31e-05 ± 8.8e-06 s⁻¹ | 3.44e-05 ± 7e-06 s⁻¹ |
| A6U U49A | < 1e-05 s⁻¹ |  | < 1e-05 s⁻¹ |  |  |  | < 1e-05 s⁻¹ |
| A6U C70U | 0.000253 ± 4.2e-05 s⁻¹ | 1200 ± 440 µM |  |  | 8.14e-05 ± 9.8e-06 s⁻¹ | 0.00021 ± 2.2e-05 s⁻¹ | 0.000197 ± 2.7e-05 s⁻¹ |
| A6G U56G U69G | 1.41e-05 ± 3e-06 s⁻¹ |  |  |  |  |  |  |
| G7A A14C | 1.34e-05 ± 5.9e-06 s⁻¹ |  |  | < 1e-05 s⁻¹ |  |  |  |
| A6U U31C | 3.19e-05 ± 7.8e-07 s⁻¹ | 647 ± 96 µM |  |  |  |  | 2.97e-05 ± 1.2e-05 s⁻¹ |
| G7A G32A C50G | 4.21e-05 ± 1.3e-05 s⁻¹ |  | 4.85e-05 ± 1.9e-05 s⁻¹ | 4.2e-05 ± 1.6e-05 s⁻¹ |  | 6.89e-05 ± 2.8e-05 s⁻¹ |  |
| C8U C58U C68A | 2.49e-05 ± 7.3e-06 s⁻¹ |  |  |  |  | < 1e-05 s⁻¹ |  |
| A6U U55G | 0.00137 ± 0.00067 s⁻¹ |  |  |  | 4.48e-05 ± 1e-05 s⁻¹ | 0.000118 ± 1.9e-05 s⁻¹ | 0.000416 ± 6.4e-05 s⁻¹ |
| A6U U69C | 8.65e-05 ± 8.1e-06 s⁻¹ |  |  |  | 6.1e-05 ± 2.4e-05 s⁻¹ | 8.15e-05 ± 2.4e-05 s⁻¹ | 7.96e-05 ± 1.8e-05 s⁻¹ |
| A6C C34A G37A G38A G63U C68U C70G | 1.43e-05 ± 4.9e-06 s⁻¹ |  |  |  | < 1e-05 s⁻¹ |  |  |
| A6U U31A U47G C50A A64G C68U | 2.33e-05 ± 2.2e-06 s⁻¹ |  |  |  |  |  |  |
| A6G U47G | 0.0001 ± 1.3e-05 s⁻¹ | 1400 ± 520 µM |  | < 1e-05 s⁻¹ | 3.81e-05 ± 1.5e-05 s⁻¹ | 6.1e-05 ± 1.2e-05 s⁻¹ | 9.1e-05 ± 1.8e-05 s⁻¹ |
